Patent US20030206891A1 (ARIAD GENE THERAPEUTICS, published 2003)

Molecular target: T1, Lex-FKBP (human, UniProt P0A7C2 1-87; P62942 2-108)
T1 construct: range 1-87;range 2-108; Translated in vitro in reticulocyte lysate; also called L87G6FKBP; p19BL87G6FKBP
Assay: gel mobility shift with in vitro translated proteins and LexCon DNA probe, rapamycin added

binding result: binds
B1: Lex-FRAP (other, UniProt P0A7C2 1-87, looked up, not shown: small tags and cut ends)
chain: MKALTARQQEVFDLIRDHISQTGMPPTRAEIAQRLGFRSPNAAEEHLKALARKGVIEIVSGASRGIRLLQEEEEGLPLVGRVAAGEPEMWHEGLEEASRLYFGERNVKGMFEVLEPLHAMMERGPQTLKETSFNQAYGRDLMEAQEWCRKYMKSGNVKDLTQAWDLYYHVFRRISK
notes: range 1-87;range 2025-2113; Translated in vitro in reticulocyte lysate; Junction residues from the SpeI-XbaI ligation are not spelled out; also called L87FRB; p19BL87FRB
